Data published in IntAct's records for PubMed 18550832.

Target: stk39_mouse Stk39 (UniProt Q9Z1W9)

effect of a mutation on the interaction: disrupting interaction
Substance: Serine/threonine-protein kinase WNK3 (Homo sapiens), Q9BYP7-2 F1337A
